# Experimental data published in article PMC12657763, “SH2-mediated steric occlusion of the C2 domain regulates autoinhibition of SHIP1 inositol 5-phosphatase” (The Journal of Biological Chemistry, 2025).
# Where no end group is shown, it is not given here. [ ]: non-standard residue; d: D form. pY = N[C@@H](Cc1ccc(OP(=O)(O)O)cc1)C(=O)O
# B1: mNG-SHIP1(RBD) (domain or fragment, human, UniProt Q92835-2 151-290, looked up)
# chain: ATETSRPSLSETLFQRLQSMDTSGLPEEHLKAIQDYLSTQLAQDSEFVKTGSSSLPHLKKLTTLLCKELYGEVIRTLPSLESLQRLFDQQLSPGLRPRPQVPGEANPINMVSKLSQLTSLLSSIEDKVKALLHEGPESPH
# notes: the clone is UniProt Q92835 isoform 2, missing V117; A GGGGG linker stands between mNG and SHIP1; 42.7 kDa for the monomeric species; also called SHIP1(RBD) fused to an mNeonGreen (mNG); his10-mNG-GGGGG-SHIP1 (RBD, 151–290 amino acids); source: E. coli BL21 (DE3) Star, purified (HiTrap chelating column with CoCl2, TEV cleavage, Superdex 200); not shown: His10, N-terminal, cleaved; mNeonGreen, …
# B2: mNG-SHIP1(FL) (enzyme, human, UniProt Q92835-2 1-1188, looked up)
# chain: MVPCWNHGNITRSKAEELLSRTGKDGSFLVRASESISRAYALCVLYRNCVYTYRILPNEDDKFTVQASEGVSMRFFTKLDQLIEFYKKENMGLVTHLQYPVPLEEEDTGDDPEEDTESVVSPPELPPRNIPLTASSCEAKEVPFSNENPRATETSRPSLSETLFQRLQSMDTSGLPEEHLKAIQDYLSTQLAQDSEFVKTGSSSLPHLKKLTTLLCKELYGEVIRTLPSLESLQRLFDQQLSPGLRPRPQVPGEANPINMVSKLSQLTSLLSSIEDKVKALLHEGPESPHRPSLIPPVTFEVKAESLGIPQKMQLKVDVESGKLIIKKSKDGSEDKFYSHKKILQLIKSQKFLNKLVILVETEKEKILRKEYVFADSKKREGFCQLLQQMKNKHSEQPEPDMITIFIGTWNMGNAPPPKKITSWFLSKGQGKTRDDSADYIPHDIYVIGTQEDPLSEKEWLEILKHSLQEITSVTFKTVAIHTLWNIRIVVLAKPEHENRISHICTDNVKTGIANTLGNKGAVGVSFMFNGTSLGFVNSHLTSGSEKKLRRNQNYMNILRFLALGDKKLSPFNITHRFTHLFWFGDLNYRVDLPTWEAETIIQKIKQQQYADLLSHDQLLTERREQKVFLHFEEEEITFAPTYRFERLTRDKYAYTKQKATGMKYNLPSWCDRVLWKSYPLVHVVCQSYGSTSDIMTSDHSPVFATFEAGVTSQFVSKNGPGTVDSQGQIEFLRCYATLKTKSQTKFYLEFHSSCLESFVKSQEGENEEGSEGELVVKFGETLPKLKPIISDPEYLLDQHILISIKSSDSDESYGEGCIALRLEATETQLPIYTPLTHHGELTGHFQGEIKLQTSQGKTREKLYDFVKTERDESSGPKTLKSLTSHDPMKQWEVTSRAPPCSGSSITEIINPNYMGVGPFGPPMPLHVKQTLSPDQQPTAWSYDQPPKDSPLGPCRGESPPTPPGQPPISPKKFLPSTANRGLPPRTQESRPSDLGKNAGDTLPQEDLPLTKPEMFENPLYGSLSSFPKPAPRKDQESPKMPRKEPPPCPEPGILSPSIVLTKAQEADRGEGPGKQVPAPRLRSFTCSSSAEGRAAGGDKSQGKPKTPVSSQAPVPAKRPIKPSRSEINQQTPPTPTPRPPLPVKSPAVLHLQHSKGRDYRDNTELPHHGKHRPEEGPPGPLGRTAMQ
# B3: pY-ITIM peptide CKTEAENTIT(pY)SLIK, conjugated to the supported membrane (peptide)
# peptide: C(MCC‑PE lipid)KTEAENTIT[pY]SLIK
# notes: cysteine added to the N terminus for coupling to the maleimide lipid; also called membrane-conjugated pY-ITIM peptides; pY-conjugated peptide; source: synthetic peptide (Elim Biopharmaceuticals), covalently coupled to MCC-PE lipids of the supported membrane
# Tests used:
# [1] = target: pY-ITIM peptide …(pY)SLIK, conjugated to the supported membrane; experiment: single-molecule TIRF-M dwell time on supported lipid bilayers; pY-ITIM peptide conjugated to the membrane (2% PI(3,4,5)P3, 2% MCC-PE, 96% DOPC); 20–50 pM mNG-SHIP1 in solution; 23 °C; single or double exponential fit of dwell times
# [2] = target: mNG-SHIP1(ΔCTD) (human); experiment: single-molecule brightness distribution (TIRF-M); mNG-SHIP1 bound to pY peptides on supported lipid bilayers; 50 pM mNG-SHIP1(FL), 50 pM mNG-SHIP1(ΔCTD) or 20 pM mNG-mSHIP1(ΔCTD); particle brightness in the second frame of each trajectory
# [3] = target: mNG-SHIP1(ΔCTD) (human); experiment: single-molecule photobleaching (TIRF-M); mNG-tagged SHIP1 bound to supported lipid bilayers with conjugated pY peptides (2% PI(3,4,5)P3, 2% MCC-PE, 96% DOPC); steps of photobleaching counted
# [4] = target: the molecule itself; experiment: SEC; purified mNG-SHIP1(RBD) on a size-exclusion chromatography column, multiple protein concentrations
# [5] = target: the molecule itself; experiment: single-molecule photobleaching (TIRF-M); mNG-tagged SHIP1 bound to supported lipid bilayers with conjugated pY peptides (2% PI(3,4,5)P3, 2% MCC-PE, 96% DOPC); steps of photobleaching counted
# [6] = target: B2; experiment: TIRF-M membrane recruitment (bulk mNG fluorescence on supported lipid bilayers); pY-ITIM peptide conjugated to the membrane (2% PI(3,4,5)P3, 2% MCC-PE, 96% DOPC); 100 pM mNG-SHIP1 in solution; membrane density normalized to mNG-SHIP1(FL); settings: both partners purified
molecule,measurement,setting,value
mNG-SHIP1(ΔCTD) (domain or fragment),membrane dwell time τ1,[1],0.359 s
same,membrane dwell time τ1 (dimers only),[1],1.79 s
same,membrane dwell time τ2,[1],1.83 s
same,estimated fraction existing as dimers (corrected for mNG maturation),[2],26%
same,fraction of legitimate dimers with two mNG visible,[2],13%
same,stoichiometry N,[3],2
mNG-mSHIP1(ΔCTD) (domain or fragment),membrane dwell time τ1,[1],0.409 s
B1,stoichiometry N,[4],2
B2,stoichiometry N,[5],2
B3,binding result,[6],binds
